Patent US7927849B2, “Laccase enzyme and use thereof” (AB Enzymes OY, priority 2004, dated 2011)

Experiments:
[1] = Specific activity on syringaldazine; format: biochemical; conditions: 25 mM MES buffer, pH 5.5
Procedure: Specific activities of the purified Thielavia laccase were determined towards different laccase substrates.

[2] = Isoelectric focusing (pI); format: physicochemical; conditions: pH range 3-9, ABTS staining
Procedure: Molecular weight of the Thielavia arenaria laccase (wt TaLcc1) was determined on SDS-PAGE according to Laemmli (1970). The gels used in the SDS-PAGE analysis were ready-made 12% Tris HCl gels (BioRad). Protein bands were visualized by staining with Coomassie Brilliant Blue (R 350; Pharmacia) and compared with molecular weight markers (Prestained Protein Marker Broad Range #7708S; New England BioLabs, Beverly, Mass.). The molecular weight of the Thielavia areanaria laccase was approximately 80 kDa. The isoelectric point of the laccase was determined with isoelectric focusing within the pH range of 3-9 (Pharmalyte IEF, Pharmacia) on a LKB 2117 Multiphor II Electrophoresis System (LKB Pharmacia, Bromma, Sweden) according to the manufacturer's instructions.
(§1) The purified recombinant Thielavia arenaria TaLcc1 was characterized in terms of pH optimum, thermal stability, and pI as described in Example 2. The molecular weight was determined by MALDI-TOF mass spectrometry on a Ultraflex™ time-of-flight instrument (BrukerDaltonics, Germany) as previously described (Palonen et al., 2003). The redox potential of TaLcc1 was also determined with a combined Pt-AgCl/KCl microelectrode at pH 5.0 according to Sigoillot et al (2004)

[3] = Redox potential, Pt-AgCl/KCl microelectrode; format: physicochemical; conditions: pH 5.0
Procedure: as §1

Decolorization of dyes [4] = test: Decolorization of dyes; parameters: key: −: no visually detectable change; +: visually detectable fading of the colour; ++: considerable fading of the colour; +++: complete/almost complete decolorization; conditions: dye 12 mg/100 ml, 50° C., pH 6
Procedure: (§2) The TaLcc1 laccase preparation from strain RF5597 was tested for its ability to decolourize different dyes in the presence or absence of the methyl syringate mediator (Example 7). The experiments were carried out in 250 ml shake flasks containing 100 ml of dye dissolved in citrate phosphate buffer pH 6. Dye concentration 12 mg/100 ml was used. Enzyme was dosed 200 nkat (or 20 nkat) per 100 ml and the mediator 10 (or 1) mg per 100 ml. The shake flasks were incubated at 50° C. for 30, 90 and 150 minutes. Samples of 3.5 ml were taken in test tubes for visual evaluation.

Decolorization of dyes [5] = test: Decolorization of dyes; parameters: key to Decolorization of Indigocarmine, Time 30 min / Decolorization of Indigocarmine, Time 90 min: −: no visually detectable change; +: visually detectable fading of the colour; ++: considerable fading of the colour; +++: complete/almost complete decolorization; conditions: 50° C., pH 6; for Decolorization of Indigocarmine, Time 30 min / Decolorization of Indigocarmine, Time 90 min: dye 12 mg/100 ml
Procedure: as §2

[6] = enzyme 20 nkat/100 ml, mediator 0 mg/100 ml
[7] = enzyme 20 nkat/100 ml, mediator 1 mg/100 ml
[8] = enzyme 200 nkat/100 ml, mediator 0 mg/100 ml
[9] = enzyme 200 nkat/100 ml, mediator 10 mg/100 ml

B1: TaLcc1: Recombinant Thielavia arenaria ALKO4197 laccase 1 (SEQ ID NO: 12) produced in Trichoderma reesei strains RF5597/RF5598 (protein)
chain: MKSWAAAVALMVGILSPHAAAAPPANPVQRDMLQVLEARQSGPTCNTPSNRACWTNGFDINTDYEVSTPNTGRTVAYQLTLTEKENWIGPDGVLKNVVMLVNDKIIGPTIRANWGDNIEVTVINNLKTNGTSMHWHGLRQLGNVFNDGANGVTECPIPPKGGRKTYKFRATQYGTSWYHSHFSAQYGNGVVGTIQIDGPASLPYDIDLGVFPLMDYYYRSADELVHFTQSNGAPPSDNVLFNGTARHPETGAGQWYNVTLTPGKRHRLRIINTSTDNHFQVSLVGHNMTVIATDMVPVNAFTVSSLFLAVGQRYDVTIDANSPVGNYWFNVTFGDGLCGSSNNKFPAAIFRYQGAPATLPTDQGLPVPNHMCLDNLNLTPVVTRSAPVNNFVKRPSNTLGVTLDIGGTPLFVWKVNGSAINVDWGKPILDYVMSGNTSYPVSDNIVQVDAVDQWTYWLIENDPTNPIVSLPHPMHLHGHDFLVLGRSPDELPSAGVRHIFDPAKDLPRLKGNNPVRRDVTMLPAGGWLLLAFKTDNPGAWLFHCHIAWHVSGGLSVDFLERPNDLRTQLNSNAKRADRDDFNRVCREWNAYWPTNPFPKIDSGLRHRFVEESEWMVR
modifications: Thielavia arenaria ALKO4197; (1)..(617) Deduced amino acid sequence of Thielavia arenaria ALKO4197 laccase 1 (Ta Lcc1)
Specific activity on syringaldazine [1]: 340 nkat/mg
pI [2]: 5.5-6.9
E^0 [3]: 560 mV
Decolorization of Remazol Brilliant Blue, Time 30 min (Decolorization of dyes [4]; [6]): −
Decolorization of Remazol Brilliant Blue, Time 90 min (Decolorization of dyes [4]; [6]): −
Decolorization of Remazol Brilliant Blue, Time 30 min (Decolorization of dyes [4]; [7]): −
Decolorization of Remazol Brilliant Blue, Time 90 min (Decolorization of dyes [4]; [7]): −
Decolorization of Cibacron Brilliant Red 3B-P, Time 30 min (Decolorization of dyes [4]; [8]): −
Decolorization of Cibacron Brilliant Red 3B-P, Time 90 min (Decolorization of dyes [4]; [8]): −
Decolorization of Pontamine Bast Orange GRN, Time 30 min (Decolorization of dyes [4]; [8]): −
Decolorization of Pontamine Bast Orange GRN, Time 90 min (Decolorization of dyes [4]; [8]): −
Decolorization of Remazol Brilliant Blue, Time 30 min (Decolorization of dyes [4]; [8]): −
Decolorization of Remazol Brilliant Blue, Time 90 min (Decolorization of dyes [4]; [8]): −
Decolorization of Cibacron Brilliant Red 3B-P, Time 30 min (Decolorization of dyes [4]; [9]): +++
Decolorization of Cibacron Brilliant Red 3B-P, Time 90 min (Decolorization of dyes [4]; [9]): +++
Decolorization of Pontamine Bast Orange GRN, Time 30 min (Decolorization of dyes [4]; [9]): +
Decolorization of Pontamine Bast Orange GRN, Time 90 min (Decolorization of dyes [4]; [9]): +
Decolorization of Remazol Brilliant Blue, Time 30 min (Decolorization of dyes [4]; [9]): ++
Decolorization of Remazol Brilliant Blue, Time 90 min (Decolorization of dyes [4]; [9]): ++
Decolorization of Indigocarmine, Time 30 min (Decolorization of dyes [5]; [7]): +
Decolorization of Indigocarmine, Time 90 min (Decolorization of dyes [5]; [7]): +++
Decolorization of Indigocarmine, Time 30 min (Decolorization of dyes [5]; [8]): −
Decolorization of Indigocarmine, Time 90 min (Decolorization of dyes [5]; [8]): −
Decolorization of Indigocarmine, Time 30 min (Decolorization of dyes [5]; [9]): +++
Decolorization of Indigocarmine, Time 90 min (Decolorization of dyes [5]; [9]): +++
time until blue colour of Indigocarmine had turned to light yellow (Decolorization of dyes [5]; in the presence of the mediator): < 30 min
